Patent US5985836A, “Alpha-1 proteinase inhibitor binding peptides” (Bayer Corporation, priority 1998, dated 1999)
Ends that are not written are not given here.

Key:
A1PI [1] = molecular target: T1, A1PI (Homo sapiens, UniProt P01009); assay: A1PI binding on peptide-resin column, injection of 1 mg A1PI in equilibration buffer; conditions: for % of Total A1PI Eluted by Fraction (Based on Absorbance at 280 nm), 1M NaCl / % of Total A1PI Eluted by Fraction (Based on Absorbance at 280 nm), 2% Acetic Acid / % of Total A1PI Eluted by Fraction (Based on Absorbance at 280 nm), Flowthrough: 1 mg A1PI; for Percent AlPI Eluted by Fraction, 1M NaCl / Percent AlPI Eluted by Fraction, 2% Acetic Acid / Percent AlPI Eluted by Fraction, Flowthrough: 1 mg AlPI
T1 construct: Human plasma is currently the only approved source of therapeutic AlPI
T1 sequence (P01009 25-418): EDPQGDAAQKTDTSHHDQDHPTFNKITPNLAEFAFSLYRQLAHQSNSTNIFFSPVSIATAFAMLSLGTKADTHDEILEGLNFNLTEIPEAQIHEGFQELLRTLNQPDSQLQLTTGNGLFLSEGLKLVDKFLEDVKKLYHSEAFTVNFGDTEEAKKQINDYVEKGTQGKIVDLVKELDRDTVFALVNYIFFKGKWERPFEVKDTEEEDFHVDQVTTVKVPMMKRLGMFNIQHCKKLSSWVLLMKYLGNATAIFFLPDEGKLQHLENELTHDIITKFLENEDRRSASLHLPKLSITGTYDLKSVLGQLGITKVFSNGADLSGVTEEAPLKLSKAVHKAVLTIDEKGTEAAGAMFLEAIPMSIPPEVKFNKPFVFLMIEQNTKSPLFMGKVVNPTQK
Method in brief: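 Peptides synthesized on A-Totda-Toyopearl chelate resin (0.1 mmole/g) packed in 0.4×5 cm columns; 1 mg A1PI injected in equilibration buffer at 4 °C or 20 °C, 865 or 523 μl/min. Flowthrough, 1M/3M NaCl washes and 2% acetic acid eluate quantified by A280 or immunonephelometry as percent of total eluted.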

A1PI [2] = molecular target: T1, A1PI; assay: A1PI yield from dialyzed (aqueous) Effluent II+III; format: binding; conditions: 4° C.
Method in brief: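 Effluent II+III was dialyzed at 4° C against equilibration buffer (15,000 MWCO) to remove ethanol. It was then applied under the same binding conditions as neat feed, and A1PI was tracked by nephelometry in the 1M NaCl and acid eluates.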

A1PI [3] = molecular target: T1, A1PI; assay: A1PI purification from 5 mg hSA + 1 mg A1PI on peptide column, A1PI mass balance; format: binding; conditions: A1PI, 5 mg hSA + 1 mg A1PI; for Mass Protein per Eluate Fraction, 1M NaCl / Mass Protein per Eluate Fraction, 2% Acetic Acid / Mass Protein per Eluate Fraction, Flow: * Below detection limit; for Percent Eluted by Fraction, 1M NaCl / Percent Eluted by Fraction, 2% Acetic Acid / Percent Eluted by Fraction, 3M NaCl / Percent Eluted by Fraction, Flow: relative to total loaded
Method in brief: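 Peptides on A-Totda-Toyopearl resin (0.1 mmole/g) in 0.4×5 cm columns; 5 mg hSA + 1 mg A1PI loaded at 4 °C or 20 °C with 10 min residence (17 μl/min). Steps of 1M and 3M NaCl, then 2% acetic acid; fractions quantified by immunonephelometry for mass balance.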

[4] = peptide density 6 μmol/g, 4° C.
[5] = peptide density 6 μmol/g, 20° C.
[6] = peptide density 17 μmol/g, 4° C.
[7] = peptide density 17 μmol/g, 20° C.
[8] = peptide density 25 μmol/g, 4° C.
[9] = peptide density 25 μmol/g, 20° C.
[10] = peptide density 39 μmol/g, 4° C.
[11] = peptide density 39 μmol/g, 20° C.
[12] = peptide density 54 μmol/g, 4° C.
[13] = peptide density 54 μmol/g, 20° C.
[14] = peptide density 58 μmol/g, 4° C.
[15] = peptide density 58 μmol/g, 20° C.
[16] = peptide density 99 μmol/g, 4° C.
[17] = peptide density 99 μmol/g, 20° C.
[18] = peptide density 135 μmol/g, 4° C.
[19] = peptide density 135 μmol/g, 20° C.
[20] = sequence truncations, 4° C., immunonephelometry
[21] = sequence truncations, 20° C., immunonephelometry
[22] = 1 ml dialyzed Eff. II+III (ethanol removed)
[23] = A1PI, 1 ml dialyzed Eff. II+III

- % of Total A1PI Eluted by Fraction (Based on Absorbance at 280 nm), 1M NaCl (A1PI [1]; Trp position mutations, 4° C.): 3%
- % of Total A1PI Eluted by Fraction (Based on Absorbance at 280 nm), 2% Acetic Acid (A1PI [1]; Trp position mutations, 4° C.): 97%
- % of Total A1PI Eluted by Fraction (Based on Absorbance at 280 nm), Flowthrough (A1PI [1]; Trp position mutations, 4° C.): 0%
- % of Total A1PI Eluted by Fraction (Based on Absorbance at 280 nm), 1M NaCl (A1PI [1]; Trp position mutations, 20° C.): 8%
- % of Total A1PI Eluted by Fraction (Based on Absorbance at 280 nm), 2% Acetic Acid (A1PI [1]; Trp position mutations, 20° C.): 92%
- % of Total A1PI Eluted by Fraction (Based on Absorbance at 280 nm), Flowthrough (A1PI [1]; Trp position mutations, 20° C.): 0%
- % of Total A1PI Eluted by Fraction (Based on Absorbance at 280 nm), 1M NaCl (A1PI [1]; VIFLVR point mutations, 4° C.): 3%
- % of Total A1PI Eluted by Fraction (Based on Absorbance at 280 nm), 2% Acetic Acid (A1PI [1]; VIFLVR point mutations, 4° C.): 97%
- % of Total A1PI Eluted by Fraction (Based on Absorbance at 280 nm), Flowthrough (A1PI [1]; VIFLVR point mutations, 4° C.): 0%
- % of Total A1PI Eluted by Fraction (Based on Absorbance at 280 nm), 1M NaCl (A1PI [1]; VIFLVR point mutations, 20° C.): 8%
- % of Total A1PI Eluted by Fraction (Based on Absorbance at 280 nm), 2% Acetic Acid (A1PI [1]; VIFLVR point mutations, 20° C.): 92%
- % of Total A1PI Eluted by Fraction (Based on Absorbance at 280 nm), Flowthrough (A1PI [1]; VIFLVR point mutations, 20° C.): 0%
- Percent AlPI Eluted by Fraction, 1M NaCl (A1PI [1]; [4]): 21%
- Percent AlPI Eluted by Fraction, 2% Acetic Acid (A1PI [1]; [4]): 0%
- Percent AlPI Eluted by Fraction, Flowthrough (A1PI [1]; [4]): 87%
- Percent AlPI Eluted by Fraction, 1M NaCl (A1PI [1]; [5]): 13%
- Percent AlPI Eluted by Fraction, 2% Acetic Acid (A1PI [1]; [5]): 0%
- Percent AlPI Eluted by Fraction, Flowthrough (A1PI [1]; [5]): 79%
- Percent AlPI Eluted by Fraction, 1M NaCl (A1PI [1]; [6]): 10%
- Percent AlPI Eluted by Fraction, 2% Acetic Acid (A1PI [1]; [6]): 2%
- Percent AlPI Eluted by Fraction, Flowthrough (A1PI [1]; [6]): 80%
- Percent AlPI Eluted by Fraction, 1M NaCl (A1PI [1]; [7]): 18%
- Percent AlPI Eluted by Fraction, 2% Acetic Acid (A1PI [1]; [7]): 22%
- Percent AlPI Eluted by Fraction, Flowthrough (A1PI [1]; [7]): 68%
- Percent AlPI Eluted by Fraction, 1M NaCl (A1PI [1]; [8]): 1%
- Percent AlPI Eluted by Fraction, 2% Acetic Acid (A1PI [1]; [8]): 43%
- Percent AlPI Eluted by Fraction, Flowthrough (A1PI [1]; [8]): 57%
- Percent AlPI Eluted by Fraction, 1M NaCl (A1PI [1]; [9]): 0%
- Percent AlPI Eluted by Fraction, 2% Acetic Acid (A1PI [1]; [9]): 72%
- Percent AlPI Eluted by Fraction, Flowthrough (A1PI [1]; [9]): 28%
- Percent AlPI Eluted by Fraction, 1M NaCl (A1PI [1]; [10]): 4%
- Percent AlPI Eluted by Fraction, 2% Acetic Acid (A1PI [1]; [10]): 96%
- Percent AlPI Eluted by Fraction, Flowthrough (A1PI [1]; [10]): 0%
- Percent AlPI Eluted by Fraction, 1M NaCl (A1PI [1]; [11]): 0%
- Percent AlPI Eluted by Fraction, 2% Acetic Acid (A1PI [1]; [11]): 100%
- Percent AlPI Eluted by Fraction, Flowthrough (A1PI [1]; [11]): 0%
- Percent AlPI Eluted by Fraction, 1M NaCl (A1PI [1]; [12]): 0%
- Percent AlPI Eluted by Fraction, 2% Acetic Acid (A1PI [1]; [12]): 100%
- Percent AlPI Eluted by Fraction, Flowthrough (A1PI [1]; [12]): 0%
- Percent AlPI Eluted by Fraction, 1M NaCl (A1PI [1]; [13]): 0%
- Percent AlPI Eluted by Fraction, 2% Acetic Acid (A1PI [1]; [13]): 100%
- Percent AlPI Eluted by Fraction, Flowthrough (A1PI [1]; [13]): 0%
- Percent AlPI Eluted by Fraction, 1M NaCl (A1PI [1]; [14]): 4%
- Percent AlPI Eluted by Fraction, 2% Acetic Acid (A1PI [1]; [14]): 96%
- Percent AlPI Eluted by Fraction, Flowthrough (A1PI [1]; [14]): 0%
- Percent AlPI Eluted by Fraction, 1M NaCl (A1PI [1]; [15]): 0%
- Percent AlPI Eluted by Fraction, 2% Acetic Acid (A1PI [1]; [15]): 100%
- Percent AlPI Eluted by Fraction, Flowthrough (A1PI [1]; [15]): 0%
- Percent AlPI Eluted by Fraction, 1M NaCl (A1PI [1]; [16]): 0%
- Percent AlPI Eluted by Fraction, 2% Acetic Acid (A1PI [1]; [16]): 100%
- Percent AlPI Eluted by Fraction, Flowthrough (A1PI [1]; [16]): 0%
- Percent AlPI Eluted by Fraction, 1M NaCl (A1PI [1]; [17]): 0%
- Percent AlPI Eluted by Fraction, 2% Acetic Acid (A1PI [1]; [17]): 93%
- Percent AlPI Eluted by Fraction, Flowthrough (A1PI [1]; [17]): 7%
- Percent AlPI Eluted by Fraction, 1M NaCl (A1PI [1]; [18]): 0%
- Percent AlPI Eluted by Fraction, 2% Acetic Acid (A1PI [1]; [18]): 100%
- Percent AlPI Eluted by Fraction, Flowthrough (A1PI [1]; [18]): 0%
- Percent AlPI Eluted by Fraction, 1M NaCl (A1PI [1]; [19]): 0%
- Percent AlPI Eluted by Fraction, 2% Acetic Acid (A1PI [1]; [19]): 95%
- Percent AlPI Eluted by Fraction, Flowthrough (A1PI [1]; [19]): 5%
- Percent AlPI Eluted by Fraction, 1M NaCl (A1PI [1]; sequence order, 4° C.): 3%
- Percent AlPI Eluted by Fraction, 2% Acetic Acid (A1PI [1]; sequence order, 4° C.): 97%
- Percent AlPI Eluted by Fraction, Flowthrough (A1PI [1]; sequence order, 4° C.): 0%
- Percent AlPI Eluted by Fraction, 1M NaCl (A1PI [1]; sequence order, 20° C.): 7%
- Percent AlPI Eluted by Fraction, 2% Acetic Acid (A1PI [1]; sequence order, 20° C.): 93%
- Percent AlPI Eluted by Fraction, Flowthrough (A1PI [1]; sequence order, 20° C.): 0%
- Percent AlPI Eluted by Fraction, 1M NaCl (A1PI [1]; [20]): 3%
- Percent AlPI Eluted by Fraction, 2% Acetic Acid (A1PI [1]; [20]): 97%
- Percent AlPI Eluted by Fraction, Flowthrough (A1PI [1]; [20]): 0%
- Percent AlPI Eluted by Fraction, 1M NaCl (A1PI [1]; [21]): 7%
- Percent AlPI Eluted by Fraction, 2% Acetic Acid (A1PI [1]; [21]): 93%
- Percent AlPI Eluted by Fraction, Flowthrough (A1PI [1]; [21]): 0%
- Mass A1PI per Eluate Fraction, 1M NaCl (A1PI [2]; [22]): 0.09 mg
- Mass A1PI per Eluate Fraction, 2% Acetic Acid (A1PI [2]; [22]): 0.37 mg
- Mass A1PI per Eluate Fraction, Flowthrough (A1PI [2]; [22]): 0.25 mg
- Percent Eluted by Fraction, 1M NaCl (A1PI [2]; [23]): 13%
- Percent Eluted by Fraction, 2% Acetic Acid (A1PI [2]; [23]): 51%
- Percent Eluted by Fraction, Flowthrough (A1PI [2]; [23]): 36%
- Mass Protein per Eluate Fraction, 1M NaCl (A1PI [3]; Table 10, 4° C.): 0.05 mg
- Mass Protein per Eluate Fraction, 2% Acetic Acid (A1PI [3]; Table 10, 4° C.): 0.61 mg
- Mass Protein per Eluate Fraction, Flow (A1PI [3]; Table 10, 4° C.): 0.13 mg
- Percent Eluted by Fraction, 1M NaCl (A1PI [3]; Table 10, 4° C.): 7%
- Percent Eluted by Fraction, 2% Acetic Acid (A1PI [3]; Table 10, 4° C.): 77%
- Percent Eluted by Fraction, 3M NaCl (A1PI [3]; Table 10, 4° C.): 0%
- Percent Eluted by Fraction, Flow (A1PI [3]; Table 10, 4° C.): 16%
- Mass Protein per Eluate Fraction, 1M NaCl (A1PI [3]; Table 10, 20° C.): 0.02 mg
- Mass Protein per Eluate Fraction, 2% Acetic Acid (A1PI [3]; Table 10, 20° C.): 0.60 mg
- Mass Protein per Eluate Fraction, Flow (A1PI [3]; Table 10, 20° C.): 0.17 mg
- Percent Eluted by Fraction, 1M NaCl (A1PI [3]; Table 10, 20° C.): 2%
- Percent Eluted by Fraction, 2% Acetic Acid (A1PI [3]; Table 10, 20° C.): 76%
- Percent Eluted by Fraction, 3M NaCl (A1PI [3]; Table 10, 20° C.): 0%
- Percent Eluted by Fraction, Flow (A1PI [3]; Table 10, 20° C.): 22%
- Mass Protein per Eluate Fraction, 1M NaCl (A1PI [3]; Table 19, 4° C.): 0.05 mg
- Mass Protein per Eluate Fraction, 2% Acetic Acid (A1PI [3]; Table 19, 4° C.): 0.61 mg
- Mass Protein per Eluate Fraction, Flow (A1PI [3]; Table 19, 4° C.): 0.13 mg
- Percent Eluted by Fraction, 2% Acetic Acid (A1PI [3]; Table 19, 4° C.): 77%
- Percent Eluted by Fraction, 3M NaCl (A1PI [3]; Table 19, 4° C.): 0%
- Percent Eluted by Fraction, Flow (A1PI [3]; Table 19, 4° C.): 16%
- Mass Protein per Eluate Fraction, 1M NaCl (A1PI [3]; Table 19, 20° C.): 0.02 mg
- Mass Protein per Eluate Fraction, 2% Acetic Acid (A1PI [3]; Table 19, 20° C.): 0.60 mg
- Mass Protein per Eluate Fraction, Flow (A1PI [3]; Table 19, 20° C.): 0.17 mg
- Percent Eluted by Fraction, 2% Acetic Acid (A1PI [3]; Table 19, 20° C.): 76%
- Percent Eluted by Fraction, 3M NaCl (A1PI [3]; Table 19, 20° C.): 0%
- Percent Eluted by Fraction, Flow (A1PI [3]; Table 19, 20° C.): 22%
Substance: VIFLVR
